± gives the uncertainty stated by the source.
B1: Homeobox protein cut-like 1, residues 548 to 629; numbered along this chain, P39880 (parent)
chain: GEEMDTAEIARQVKEQLIKHNIGQRIFGHYVLGLSQGSVSEILARPKPWNKLTVRGKEPFHKMKQFLSDEQNILALRSIQGR

Variants of: B1
Assay: abundance fitness (aPCA) (normalised: wild type 0, dead -1); higher = more abundant; growth selection in yeast, the domain comes from the species named
Conditions: Homo sapiens

Row | Variant | abundance fitness
1 | R55V | -0.06 ± 0.028
2 | R55P | -0.159 ± 0.036
3 | R55N | -0.142 ± 0.071
4 | R55T | 0.007 ± 0.033
5 | R55S | 0.004 ± 0.031
6 | R55Q | 0.067 ± 0.034
7 | R55W | -0.095 ± 0.032
8 | R55Y | -0.096 ± 0.068
9 | E58I | -0.234 ± 0.085
10 | E58H | -0.618 ± 0.11
11 | E58K | -0.23 ± 0.037
12 | E58G | -0.35 ± 0.026
13 | E58S | -0.252 ± 0.035
14 | E58V | -0.062 ± 0.03
15 | E58A | -0.168 ± 0.03
16 | E58L | -0.121 ± 0.032
17 | E58C | -0.441 ± 0.065
18 | E58N | -0.27 ± 0.071
19 | E58M | -0.132 ± 0.04
20 | E58Y | -0.166 ± 0.075
21 | E58D | -0.105 ± 0.051
22 | E58F | -0.416 ± 0.14
23 | E58R | -0.273 ± 0.026
24 | E58W | -0.227 ± 0.033

Row | Variant | abundance fitness
25 | E58P | -0.819 ± 0.087
26 | E58T | -0.255 ± 0.038
27 | E58Q | -0.047 ± 0.034
28 | K62G | -0.729 ± 0.032
29 | K62C | -0.413 ± 0.062
30 | K62Y | -0.522 ± 0.095
31 | K62F | -0.603 ± 0.11
32 | K62I | -0.16 ± 0.068
33 | K62R | -0.126 ± 0.024
34 | K62E | -0.506 ± 0.036
35 | K62T | -0.305 ± 0.044
36 | K62A | -0.201 ± 0.027
37 | K62P | -0.989 ± 0.089
38 | K62L | -0.12 ± 0.031
39 | K62W | -0.749 ± 0.047
40 | K62S | -0.443 ± 0.038
41 | K62V | -0.307 ± 0.03
42 | K62N | -0.532 ± 0.082
43 | K62M | -0.231 ± 0.041
44 | M63E | -0.872 ± 0.056
45 | M63K | -0.992 ± 0.074
46 | M63D | -0.949 ± 0.11
47 | M63I | -0.31 ± 0.069
48 | M63H | -1.13 ± 0.21

Row | Variant | abundance fitness
49 | M63V | -0.886 ± 0.051
50 | M63Y | -0.94 ± 0.14
51 | M63G | -1.04 ± 0.045
52 | M63R | -1 ± 0.05
53 | M63P | -0.797 ± 0.076
54 | M63F | -0.753 ± 0.16
55 | M63A | -0.677 ± 0.043
56 | M63W | -1.02 ± 0.071
57 | M63L | -0.423 ± 0.038
58 | M63T | -0.777 ± 0.057
59 | M63N | -1.16 ± 0.19
60 | F60G | -0.952 ± 0.045
61 | F60P | -0.897 ± 0.091
62 | F60S | -0.869 ± 0.068
63 | F60E | -0.799 ± 0.055
64 | F60V | -0.911 ± 0.057
65 | F60T | -0.835 ± 0.074
66 | F60Y | 0.019 ± 0.069
67 | F60R | -1.01 ± 0.051
68 | F60M | -0.536 ± 0.057
69 | F60Q | -0.761 ± 0.063
70 | F60C | -0.762 ± 0.26
71 | F60D | -0.803 ± 0.11
72 | F60W | 0.035 ± 0.04

Row | Variant | abundance fitness
73 | F60A | -0.944 ± 0.064
74 | F60I | -0.306 ± 0.12
75 | H61I | 0.075 ± 0.061
76 | H61N | -0.11 ± 0.056
77 | H61V | 0.009 ± 0.028
78 | H61Q | 0.04 ± 0.034
79 | H61W | -0.03 ± 0.029
80 | H61F | 0.069 ± 0.089
81 | H61C | -0.134 ± 0.047
82 | H61E | 0.021 ± 0.028
83 | H61L | 0.071 ± 0.032
84 | H61Y | 0.067 ± 0.055
85 | H61A | -0.07 ± 0.027
86 | H61R | 0.014 ± 0.023
87 | H61K | 0.013 ± 0.035
88 | H61G | -0.342 ± 0.024
89 | H61S | -0.137 ± 0.035
90 | G56I | -0.282 ± 0.07
91 | G56N | -0.22 ± 0.063
92 | G56S | -0.254 ± 0.032
93 | G56W | -0.265 ± 0.031
94 | G56T | -0.333 ± 0.042
95 | G56Y | -0.313 ± 0.078
96 | G56F | -0.224 ± 0.068

Row | Variant | abundance fitness
97 | G56V | -0.343 ± 0.029
98 | G56L | -0.098 ± 0.031
99 | G56K | -0.595 ± 0.057
100 | G56M | -0.143 ± 0.039
101 | G56Q | 0.077 ± 0.036
102 | G56P | -0.697 ± 0.069
103 | G56D | 0.036 ± 0.043
104 | G56H | -0.352 ± 0.082
105 | G56R | -0.711 ± 0.033
106 | G56C | -0.279 ± 0.056
107 | G56E | 0.085 ± 0.029
108 | K57I | -0.284 ± 0.082
109 | K57L | -0.288 ± 0.034
110 | K57C | -0.393 ± 0.066
111 | K57M | -0.152 ± 0.041
112 | K57A | -0.2 ± 0.029
113 | K57R | 0.013 ± 0.023
114 | K57S | -0.334 ± 0.035
115 | K57F | -0.742 ± 0.18
116 | K57W | -0.526 ± 0.04
117 | K57N | -0.601 ± 0.095
118 | K57P | -0.663 ± 0.07
119 | K57E | -0.476 ± 0.036
120 | K57Y | -0.528 ± 0.1

Row | Variant | abundance fitness
121 | K57G | -0.525 ± 0.028
122 | K57Q | 0.057 ± 0.036
123 | K57H | -0.426 ± 0.095
124 | K57T | -0.408 ± 0.042
125 | K57V | -0.455 ± 0.034
126 | Q65I | -0.096 ± 0.08
127 | Q65A | -0.02 ± 0.028
128 | Q65G | -0.232 ± 0.023
129 | Q65E | 0.053 ± 0.028
130 | Q65C | -0.172 ± 0.063
131 | Q65F | -0.446 ± 0.11
132 | K64P | -0.917 ± 0.1
133 | K64H | -0.216 ± 0.059
134 | K64D | -0.489 ± 0.085
135 | K64V | -0.023 ± 0.029
136 | K64C | -0.273 ± 0.056
137 | K64W | -0.24 ± 0.035
138 | K64M | -0.061 ± 0.037
139 | K64R | -0.049 ± 0.024
140 | K64F | -0.15 ± 0.097
141 | K64N | -0.225 ± 0.062
142 | K64E | -0.167 ± 0.03
143 | K64T | -0.287 ± 0.043
144 | K64G | -0.43 ± 0.026

Row | Variant | abundance fitness
145 | K64L | -0.064 ± 0.032
146 | K64S | -0.154 ± 0.035
147 | K64Y | -0.112 ± 0.085
148 | K64A | -0.028 ± 0.029
149 | K64Q | 0.033 ± 0.036
150 | P59M | 0.078 ± 0.04
151 | P59H | 0.025 ± 0.066
152 | P59G | -0.024 ± 0.024
153 | P59L | 0.133 ± 0.035
154 | P59S | 0.076 ± 0.036
155 | P59I | 0.099 ± 0.057
156 | P59Y | 0.025 ± 0.068
157 | P59C | 0.1 ± 0.058
158 | P59E | 0.101 ± 0.03
159 | P59F | 0.052 ± 0.068
160 | P59T | 0.088 ± 0.041
161 | P59W | 0.077 ± 0.032
162 | P59A | 0.091 ± 0.031
163 | P59K | -0.034 ± 0.037
164 | P59D | 0.047 ± 0.051
165 | P59Q | 0.078 ± 0.043
166 | P59N | 0.113 ± 0.084
167 | P59R | 0.023 ± 0.025
